According to publication PMC10434240, “An Atypical F-Actin Capping Protein Modulates Cytoskeleton Behaviors Crucial for Trichomonas vaginalis Colonization” (Microbiology Spectrum, 2023):

B1: α-actin (endogenous T. vaginalis) (natural protein)
chain: not shown
notes: T. vaginalis α-actin detected by anti-α-actin antibody; other actin genes of the parasite may be detected too; also called F-actin; TvActin; source: endogenous, T. vaginalis TH17 lysate

Columns and labels:
[1] = molecular target: T1, HA-TvFACPα(S2A) (Trichomonas vaginalis, UniProt A2FE30 1-261, S2A); assay: co-IP; anti-HA agarose beads on lysates of TH17 trophozoites overexpressing HA-TvFACPα or its mutants (1% Triton X-100, 5 mM EDTA in TBS, 4°C overnight); Western blotting for α-actin and α-actinin; also after DMSO or TBB (CKII inhibitor) treatment; conditions: partners not purified
T1 construct: T. vaginalis F-actin capping protein subunit α (TvFACPα), TVAG_470230; source: transgenic T. vaginalis TH17 trophozoites (Flp-HA-TvFACPα(S2A) plasmid), overexpressed, in lysate
T1 sequence: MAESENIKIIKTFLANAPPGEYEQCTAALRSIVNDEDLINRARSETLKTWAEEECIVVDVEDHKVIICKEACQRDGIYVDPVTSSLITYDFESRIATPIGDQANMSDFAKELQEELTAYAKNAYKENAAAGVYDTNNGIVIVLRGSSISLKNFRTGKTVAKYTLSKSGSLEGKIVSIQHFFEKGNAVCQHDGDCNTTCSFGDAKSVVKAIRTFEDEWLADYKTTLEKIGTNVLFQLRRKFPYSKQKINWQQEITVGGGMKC

[2] = molecular target: T2, tagless recombinant TvActin (rTvActin) (Trichomonas vaginalis, UniProt P90623 1-376); assay: TIRF microscopy; 6 μM G-rTvActin (10% Alexa Fluor 488-labelled) polymerising in TIRF buffer on NEM-myosin II-coated flow cell with 300 nM His-TvFACPα; Alexa Fluor 555-His-TvFACPα seen at the barbed end; conditions: both partners purified
T2 construct: T. vaginalis α-actin (TvActin), TVAG_337240; Monomeric (G-) in G-buffer, polymerised (F-) in F-buffer; the assay's format tells which; 10% pyrene-labelled in the pyrene assay and 10% Alexa Fluor 488-labelled in TIRF microscopy; also called G-rTvActin; F-rTvActin; source: E. coli BL21, GST-TvActin cleaved with thrombin, purified (heparin-Sepharose, Sephacryl S-300 gel filtration)

[3] = molecular target: B1; assay: co-sedimentation; actin fractionation of trophozoite lysates (Cytoskeleton Inc. kit): 100,000 × g for 1 h, F-actin and associated proteins in the pellet; Western blotting; nontransgenic and transgenic TH17, flagellate and amoeboid forms, DMSO or TBB, T1 isolate; conditions: partners not purified

## B1
[1]
  fold change of coimmunoprecipitated α-actin signal against HA-TvFACPα: 3 fold

B2: Alexa Fluor 555-His-TvFACPα (natural protein)
chain: MSESENIKIIKTFLANAPPGEYEQCTAALRSIVNDEDLINRARSETLKTWAEEECIVVDVEDHKVIICKEACQRDGIYVDPVTSSLITYDFESRIATPIGDQANMSDFAKELQEELTAYAKNAYKENAAAGVYDTNNGIVIVLRGSSISLKNFRTGKTVAKYTLSKSGSLEGKIVSIQHFFEKGNAVCQHDGDCNTTCSFGDAKSVVKAIRTFEDEWLADYKTTLEKIGTNVLFQLRRKFPYSKQKINWQQEITVGGGMKC
modifications: Alexa Fluor 555 maleimide label (residue not stated)
notes: T. vaginalis F-actin capping protein subunit α (TvFACPα), TVAG_470230, 267 amino acids; m6 after dye labelling; source: recombinant from pET28-His-TvFACPα, purified, labelled with Alexa Fluor 555 maleimide
[2]
  binding result: binds

B3: HA-TvFACPα (natural protein)
chain: MSESENIKIIKTFLANAPPGEYEQCTAALRSIVNDEDLINRARSETLKTWAEEECIVVDVEDHKVIICKEACQRDGIYVDPVTSSLITYDFESRIATPIGDQANMSDFAKELQEELTAYAKNAYKENAAAGVYDTNNGIVIVLRGSSISLKNFRTGKTVAKYTLSKSGSLEGKIVSIQHFFEKGNAVCQHDGDCNTTCSFGDAKSVVKAIRTFEDEWLADYKTTLEKIGTNVLFQLRRKFPYSKQKINWQQEITVGGGMKC
notes: T. vaginalis F-actin capping protein subunit α (TvFACPα), TVAG_470230, 267 amino acids; source: transgenic T. vaginalis TH17 trophozoites (Flp-HA-TvFACPα plasmid), overexpressed, in lysate
[3]
  fold change of cosedimented level against endogenous TvFACPα in the nontransfectant: ~2 fold
